Experimental data as given in patent CN110885376A (SHANGHAI NOVAMAB BIOPHARMACEUTICALS CO LTD, dated 2020).

Biological target: T1, CD20 (UniProt P11836 1-297, limits assumed)
T1 construct: whole, on cells; Endogenous CD20 of Raji cells; also called 白细胞分化抗原20; 细胞表面CD20
T1 sequence (looked up): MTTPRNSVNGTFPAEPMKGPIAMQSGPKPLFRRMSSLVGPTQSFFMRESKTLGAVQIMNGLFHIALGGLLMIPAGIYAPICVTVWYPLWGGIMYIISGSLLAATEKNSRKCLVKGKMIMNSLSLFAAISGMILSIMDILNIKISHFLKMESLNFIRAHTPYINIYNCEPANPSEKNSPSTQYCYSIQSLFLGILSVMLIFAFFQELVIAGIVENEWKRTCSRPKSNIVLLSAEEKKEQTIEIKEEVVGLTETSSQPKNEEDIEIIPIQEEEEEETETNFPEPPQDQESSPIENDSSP
Assay: flow cytometry on Raji cells (CD47 first blocked with Nb1902), anti-hFc-FITC

B1: 利妥昔单抗 (antibody, human IgG1, kappa, L234A L235A, V domains shown)
VH: QVQLQQPGAELVKPGASVKMSCKASGYTFTSYNMHWVKQTPGRGLEWIGAIYPGNGDTSYNQKFKGKATLTADKSSSTAYMQLSSLTSEDSAVYYCARSTYYGGDWYFNVWGAGTTVTVSA
VL: QIVLSQSPAILSASPGEKVTMTCRASSSVSYIHWFQQKPGSSPKPWIYATSNLASGVPVRFSGSGSGTSYSLTISRVEAEDAATYYCQQWTSNPPTFGGGTKLEIKR
notes: also called 对照抗体利妥昔; rituximab
For B1, the EC50 was 5.67 µg/mL.
